From US20200270325A1 (Merck Sharp & Dohme, published 2020)
Numbered stars: 1 amine (or outer) side, 2 acyl side, 3 side chain; on linkers, the order of the positions; unused ones are H or OH. Square brackets hold non-standard residues; d marks the D form. Primed or numbered codes have the meaning given here. Side chains are listed from the residue outwards. Ends that are not written are not given here. * marks the point of attachment. Phe(4-CH2NH2) = NCc1ccc(C[C@H](N)C(=O)O)cc1; C18 diacid = O=C(O)CCCCCCCCCCCCCCCCC(=O)*; αMeW = C[C@](N)(Cc1c[nH]c2ccccc12)C(=O)O; C16 diacid = O=C(O)CCCCCCCCCCCCCCC(=O)*; γGlu = O=C(O)[C@H](CCC(=O)[*:2])N[*:1]; Met(O2) = CS(=O)(=O)CC[C@H](N)C(=O)O; αMeD = C[C@](N)(CC(=O)O)C(=O)O; αMeS = C[C@](N)(CO)C(=O)O; PEG2′ = not defined here; AEEA = NCCOCCOCC(=O)O; Aib = CC(C)(N)C(=O)O

B1: TP618 (peptide)
peptide: H[αMeS]QGTFTSDYSKYLD[Aib]RAAK([AEEA-AEEA-γGlu-C16 diacid])DFVQWL[Met(O2)][αMeD]T-NH2
modifications: N-terminus assumed
SMILES: CC(C)C[C@H](NC(=O)[C@H](Cc1ccc(O)cc1)NC(=O)[C@H](CCCCN)NC(=O)[C@H](CO)NC(=O)[C@H](Cc1ccc(O)cc1)NC(=O)[C@H](CC(=O)O)NC(=O)[C@H](CO)NC(=O)[C@@H](NC(=O)[C@H](Cc1ccccc1)NC(=O)[C@@H](NC(=O)CNC(=O)[C@H](CCC(N)=O)NC(=O)[C@](C)(CO)NC(=O)[C@@H](N)Cc1c[nH]cn1)[C@@H](C)O)[C@@H](C)O)C(=O)N[C@@H](CC(=O)O)C(=O)NC(C)(C)C(=O)N[C@@H](CCCNC(=N)N)C(=O)N[C@@H](C)C(=O)N[C@@H](C)C(=O)N[C@@H](CCCCNC(=O)COCCOCCNC(=O)COCCOCCNC(=O)CC[C@H](NC(=O)CCCCCCCCCCCCCCC(=O)O)C(=O)O)C(=O)N[C@@H](CC(=O)O)C(=O)N[C@@H](Cc1ccccc1)C(=O)N[C@H](C(=O)N[C@@H](CCC(N)=O)C(=O)N[C@@H](Cc1c[nH]c2ccccc12)C(=O)N[C@@H](CC(C)C)C(=O)N[C@@H](CCS(C)(=O)=O)C(=O)N[C@@](C)(CC(=O)O)C(=O)N[C@H](C(N)=O)[C@@H](C)O)C(C)C
B2: TP620 (peptide)
peptide: H[αMeS]QGTFTSDYSKYLD[Aib]RAAK([AEEA-AEEA-γGlu-C18 diacid])DFVQWL[Met(O2)][αMeD]T-NH2
modifications: N-terminus assumed
SMILES: CC(C)C[C@H](NC(=O)[C@H](Cc1ccc(O)cc1)NC(=O)[C@H](CCCCN)NC(=O)[C@H](CO)NC(=O)[C@H](Cc1ccc(O)cc1)NC(=O)[C@H](CC(=O)O)NC(=O)[C@H](CO)NC(=O)[C@@H](NC(=O)[C@H](Cc1ccccc1)NC(=O)[C@@H](NC(=O)CNC(=O)[C@H](CCC(N)=O)NC(=O)[C@](C)(CO)NC(=O)[C@@H](N)Cc1c[nH]cn1)[C@@H](C)O)[C@@H](C)O)C(=O)N[C@@H](CC(=O)O)C(=O)NC(C)(C)C(=O)N[C@@H](CCCNC(=N)N)C(=O)N[C@@H](C)C(=O)N[C@@H](C)C(=O)N[C@@H](CCCCNC(=O)COCCOCCNC(=O)COCCOCCNC(=O)CC[C@H](NC(=O)CCCCCCCCCCCCCCCCC(=O)O)C(=O)O)C(=O)N[C@@H](CC(=O)O)C(=O)N[C@@H](Cc1ccccc1)C(=O)N[C@H](C(=O)N[C@@H](CCC(N)=O)C(=O)N[C@@H](Cc1c[nH]c2ccccc12)C(=O)N[C@@H](CC(C)C)C(=O)N[C@@H](CCS(C)(=O)=O)C(=O)N[C@@](C)(CC(=O)O)C(=O)N[C@H](C(N)=O)[C@@H](C)O)C(C)C
B3: TP621 (peptide)
peptide: H[αMeS]QGTFTSDYSKYLD[Aib]RAAQK([AEEA-AEEA-γGlu-C18 diacid])FVQWL[Met(O2)][αMeD]T-NH2
modifications: N-terminus assumed
SMILES: CC(C)C[C@H](NC(=O)[C@H](Cc1ccc(O)cc1)NC(=O)[C@H](CCCCN)NC(=O)[C@H](CO)NC(=O)[C@H](Cc1ccc(O)cc1)NC(=O)[C@H](CC(=O)O)NC(=O)[C@H](CO)NC(=O)[C@@H](NC(=O)[C@H](Cc1ccccc1)NC(=O)[C@@H](NC(=O)CNC(=O)[C@H](CCC(N)=O)NC(=O)[C@](C)(CO)NC(=O)[C@@H](N)Cc1c[nH]cn1)[C@@H](C)O)[C@@H](C)O)C(=O)N[C@@H](CC(=O)O)C(=O)NC(C)(C)C(=O)N[C@@H](CCCNC(=N)N)C(=O)N[C@@H](C)C(=O)N[C@@H](C)C(=O)N[C@@H](CCC(N)=O)C(=O)N[C@@H](CCCCNC(=O)COCCOCCNC(=O)COCCOCCNC(=O)CC[C@H](NC(=O)CCCCCCCCCCCCCCCCC(=O)O)C(=O)O)C(=O)N[C@@H](Cc1ccccc1)C(=O)N[C@H](C(=O)N[C@@H](CCC(N)=O)C(=O)N[C@@H](Cc1c[nH]c2ccccc12)C(=O)N[C@@H](CC(C)C)C(=O)N[C@@H](CCS(C)(=O)=O)C(=O)N[C@@](C)(CC(=O)O)C(=O)N[C@H](C(N)=O)[C@@H](C)O)C(C)C
B4: TP622 (peptide)
peptide: H[Aib]QGTFTSD[Phe(4-CH2NH2)]([AEEA-γGlu-C16 diacid])SKYLDARAAQDFVQWL[Met(O2)]DT-NH2
modifications: N-terminus assumed
SMILES: CC(C)C[C@H](NC(=O)[C@H](Cc1ccc(O)cc1)NC(=O)[C@H](CCCCN)NC(=O)[C@H](CO)NC(=O)[C@H](Cc1ccc(CNC(=O)COCCOCCNC(=O)CC[C@H](NC(=O)CCCCCCCCCCCCCCC(=O)O)C(=O)O)cc1)NC(=O)[C@H](CC(=O)O)NC(=O)[C@H](CO)NC(=O)[C@@H](NC(=O)[C@H](Cc1ccccc1)NC(=O)[C@@H](NC(=O)CNC(=O)[C@H](CCC(N)=O)NC(=O)C(C)(C)NC(=O)[C@@H](N)Cc1c[nH]cn1)[C@@H](C)O)[C@@H](C)O)C(=O)N[C@@H](CC(=O)O)C(=O)N[C@@H](C)C(=O)N[C@@H](CCCNC(=N)N)C(=O)N[C@@H](C)C(=O)N[C@@H](C)C(=O)N[C@@H](CCC(N)=O)C(=O)N[C@@H](CC(=O)O)C(=O)N[C@@H](Cc1ccccc1)C(=O)N[C@H](C(=O)N[C@@H](CCC(N)=O)C(=O)N[C@@H](Cc1c[nH]c2ccccc12)C(=O)N[C@@H](CC(C)C)C(=O)N[C@@H](CCS(C)(=O)=O)C(=O)N[C@@H](CC(=O)O)C(=O)N[C@H](C(N)=O)[C@@H](C)O)C(C)C
B5: TP623 (peptide)
peptide: H[Aib]QGTFTSD[Phe(4-CH2NH2)]([AEEA-γGlu-C18 diacid])SKYLDARAAQDFVQWL[Met(O2)]DT-NH2
modifications: N-terminus assumed
SMILES: CC(C)C[C@H](NC(=O)[C@H](Cc1ccc(O)cc1)NC(=O)[C@H](CCCCN)NC(=O)[C@H](CO)NC(=O)[C@H](Cc1ccc(CNC(=O)COCCOCCNC(=O)CC[C@H](NC(=O)CCCCCCCCCCCCCCCCC(=O)O)C(=O)O)cc1)NC(=O)[C@H](CC(=O)O)NC(=O)[C@H](CO)NC(=O)[C@@H](NC(=O)[C@H](Cc1ccccc1)NC(=O)[C@@H](NC(=O)CNC(=O)[C@H](CCC(N)=O)NC(=O)C(C)(C)NC(=O)[C@@H](N)Cc1c[nH]cn1)[C@@H](C)O)[C@@H](C)O)C(=O)N[C@@H](CC(=O)O)C(=O)N[C@@H](C)C(=O)N[C@@H](CCCNC(=N)N)C(=O)N[C@@H](C)C(=O)N[C@@H](C)C(=O)N[C@@H](CCC(N)=O)C(=O)N[C@@H](CC(=O)O)C(=O)N[C@@H](Cc1ccccc1)C(=O)N[C@H](C(=O)N[C@@H](CCC(N)=O)C(=O)N[C@@H](Cc1c[nH]c2ccccc12)C(=O)N[C@@H](CC(C)C)C(=O)N[C@@H](CCS(C)(=O)=O)C(=O)N[C@@H](CC(=O)O)C(=O)N[C@H](C(N)=O)[C@@H](C)O)C(C)C
B6: TP624 (peptide)
peptide: H[Aib]QGTFTSD[Phe(4-CH2NH2)]([AEEA-AEEA-γGlu-C18 diacid])SKYLDARAAQDFVQWL[Met(O2)][αMeD]T-NH2
modifications: N-terminus assumed
SMILES: CC(C)C[C@H](NC(=O)[C@H](Cc1ccc(O)cc1)NC(=O)[C@H](CCCCN)NC(=O)[C@H](CO)NC(=O)[C@H](Cc1ccc(CNC(=O)COCCOCCNC(=O)COCCOCCNC(=O)CC[C@H](NC(=O)CCCCCCCCCCCCCCCCC(=O)O)C(=O)O)cc1)NC(=O)[C@H](CC(=O)O)NC(=O)[C@H](CO)NC(=O)[C@@H](NC(=O)[C@H](Cc1ccccc1)NC(=O)[C@@H](NC(=O)CNC(=O)[C@H](CCC(N)=O)NC(=O)C(C)(C)NC(=O)[C@@H](N)Cc1c[nH]cn1)[C@@H](C)O)[C@@H](C)O)C(=O)N[C@@H](CC(=O)O)C(=O)N[C@@H](C)C(=O)N[C@@H](CCCNC(=N)N)C(=O)N[C@@H](C)C(=O)N[C@@H](C)C(=O)N[C@@H](CCC(N)=O)C(=O)N[C@@H](CC(=O)O)C(=O)N[C@@H](Cc1ccccc1)C(=O)N[C@H](C(=O)N[C@@H](CCC(N)=O)C(=O)N[C@@H](Cc1c[nH]c2ccccc12)C(=O)N[C@@H](CC(C)C)C(=O)N[C@@H](CCS(C)(=O)=O)C(=O)N[C@@](C)(CC(=O)O)C(=O)N[C@H](C(N)=O)[C@@H](C)O)C(C)C
B7: TP625 (peptide)
peptide: H[Aib]QGTFTSD[Phe(4-CH2NH2)]([AEEA-AEEA-γGlu-C18 diacid])SKYLDARAAQDFVQ[αMeW]L[Met(O2)]DT-NH2
modifications: N-terminus assumed
SMILES: CC(C)C[C@H](NC(=O)[C@H](Cc1ccc(O)cc1)NC(=O)[C@H](CCCCN)NC(=O)[C@H](CO)NC(=O)[C@H](Cc1ccc(CNC(=O)COCCOCCNC(=O)COCCOCCNC(=O)CC[C@H](NC(=O)CCCCCCCCCCCCCCCCC(=O)O)C(=O)O)cc1)NC(=O)[C@H](CC(=O)O)NC(=O)[C@H](CO)NC(=O)[C@@H](NC(=O)[C@H](Cc1ccccc1)NC(=O)[C@@H](NC(=O)CNC(=O)[C@H](CCC(N)=O)NC(=O)C(C)(C)NC(=O)[C@@H](N)Cc1c[nH]cn1)[C@@H](C)O)[C@@H](C)O)C(=O)N[C@@H](CC(=O)O)C(=O)N[C@@H](C)C(=O)N[C@@H](CCCNC(=N)N)C(=O)N[C@@H](C)C(=O)N[C@@H](C)C(=O)N[C@@H](CCC(N)=O)C(=O)N[C@@H](CC(=O)O)C(=O)N[C@@H](Cc1ccccc1)C(=O)N[C@H](C(=O)N[C@@H](CCC(N)=O)C(=O)N[C@@](C)(Cc1c[nH]c2ccccc12)C(=O)N[C@@H](CC(C)C)C(=O)N[C@@H](CCS(C)(=O)=O)C(=O)N[C@@H](CC(=O)O)C(=O)N[C@H](C(N)=O)[C@@H](C)O)C(C)C

Columns and labels:
[1] = target: human GLP-1 receptor (GLP1R) (human, UniProt P43220 24-463); experiment: cell-based or functional assay
[2] = target: human Glucagon receptor (GCGR) (human, UniProt P47871 26-477); experiment: cell-based or functional assay
human Glucagon receptor (GCGR), sequence (P47871 26-477): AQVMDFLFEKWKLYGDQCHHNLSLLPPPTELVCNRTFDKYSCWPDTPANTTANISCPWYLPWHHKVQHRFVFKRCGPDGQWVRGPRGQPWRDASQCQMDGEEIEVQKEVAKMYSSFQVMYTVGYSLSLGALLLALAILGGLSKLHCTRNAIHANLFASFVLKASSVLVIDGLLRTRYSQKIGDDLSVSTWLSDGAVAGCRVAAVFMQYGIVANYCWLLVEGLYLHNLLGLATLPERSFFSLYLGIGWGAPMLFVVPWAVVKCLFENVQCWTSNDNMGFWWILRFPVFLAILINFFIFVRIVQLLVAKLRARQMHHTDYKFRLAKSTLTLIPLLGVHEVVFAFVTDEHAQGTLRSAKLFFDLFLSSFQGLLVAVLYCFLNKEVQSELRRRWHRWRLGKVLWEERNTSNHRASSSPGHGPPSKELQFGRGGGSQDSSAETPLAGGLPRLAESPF

| Binder | GLP1R EC50 human [1] [nM] | GCGR EC50 human [2] [nM] |
| --- | --- | --- |
| B1 | 2.48 | 0.36 |
| H[αMS]QGTFTSDYSKYLD[Aib]RAAQK([PEG2′-PEG2′-γGlu-C16 diacid])FVQWL[Met(O2)][αMD]T-NH2 [TP619] | 0.38 | 0.05 |
| B2 | 8.58 | 1.26 |
| B3 | 1.94 | 0.25 |
| B4 | 0.09 | 0.03 |
| B5 | 0.17 | 0.09 |
| B6 | 0.89 | 1 |
| B7 | 0.39 | 1.3 |
